Assay results published in patent publication US20230002481A1 (Chugai, published 2023).
Residue numbers refer to the chain shown, from its start.

Assays:
[1] = target: T1, cyno FcγRIa (cynomolgus monkey, UniProt P12314 16-288 (human entry)); test: SPR (Biacore T200), antibody captured on Protein L, FcγRIa at 8 nM, pH7.4, 25 C
T1 construct: also called cyFcyRIa; cynomolgus monkey Fc gamma receptor Ia; not shown: C-terminal His-tag
T1 chain: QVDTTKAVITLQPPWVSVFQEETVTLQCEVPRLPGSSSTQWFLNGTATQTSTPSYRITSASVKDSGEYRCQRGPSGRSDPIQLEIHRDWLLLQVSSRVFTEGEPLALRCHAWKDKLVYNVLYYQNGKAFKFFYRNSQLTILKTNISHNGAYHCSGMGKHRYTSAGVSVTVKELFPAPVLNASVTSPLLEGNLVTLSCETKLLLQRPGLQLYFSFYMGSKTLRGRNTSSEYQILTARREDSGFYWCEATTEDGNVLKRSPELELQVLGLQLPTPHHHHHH
Description: (§1) Analysis of interaction between antibody and the FcγR prepared as mentioned above was carried out using BIACORE (registered trademark) T200 (GE Healthcare). 150 mMN Sodium chloride and 0.05 w/v % Tween-20 containing 50 mM phosphate buffer (pH7.4) was used as running buffer, and the measurement temperature was set to 25 degrees C. Chip produced by immobilizing Protein L (BioVision) by the amine coupling method to a Series S sensor Chip CM4 (GE Healthcare) was used. After capturing 500 or 1000 resonance unit (RU) of antibodies of interest onto the chip, FcγRs diluted with the running buffer were allowed to interact, and their binding amounts to antibodies were measured. Cyno FcγRIa was diluted to 8 nM, and others were diluted to 1000 nM. Then, antibodies captured onto the chip were washed by 10 mM Glycine-HC, pH1.5, and the chip was regenerated and used repeatedly. The binding amounts of FcγRs were divided by the binding amount of each antibody captured to obtain binding activity using biacore evaluation software, and these values were compared. Furthermore, the relative values of binding activity of COS0098pHv1-SG1077R to each FcγR to COS0098pHv1-SG1 (an antibody having the sequence of a naturally-occurring human IgG1 at positions 234 to 239, 265 to 271, 295, 296, 298, 300, and 324 to 337, according to EU numbering) were calculated.

[2] = target: T2, cyno FcγRIIb (cynomolgus monkey); test: SPR (Biacore T200), antibody captured on Protein L, FcγR at 1000 nM, pH7.4, 25 C
T2 construct: also called cyFcyRIIb; not shown: C-terminal His-tag
T2 chain: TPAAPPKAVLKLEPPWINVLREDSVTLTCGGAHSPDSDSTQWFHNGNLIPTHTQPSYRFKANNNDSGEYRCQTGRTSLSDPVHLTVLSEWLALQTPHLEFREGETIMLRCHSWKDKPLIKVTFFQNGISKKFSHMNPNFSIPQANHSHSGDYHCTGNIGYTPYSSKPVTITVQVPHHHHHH
Description: as §1

[3] = target: T3, cyno FcγRIIIa(R) (cynomolgus monkey, UniProt Q8SPW2 17-208); test: as above
T3 construct: also called cyFcyRIIIa(R); not shown: C-terminal His-tag
Description: as §1

[4] = target: T4, cyno FcγRIIa2 (cynomolgus monkey); test: as above
T4 construct: also called cyFcyRIIa2; not shown: C-terminal His-tag
T4 chain: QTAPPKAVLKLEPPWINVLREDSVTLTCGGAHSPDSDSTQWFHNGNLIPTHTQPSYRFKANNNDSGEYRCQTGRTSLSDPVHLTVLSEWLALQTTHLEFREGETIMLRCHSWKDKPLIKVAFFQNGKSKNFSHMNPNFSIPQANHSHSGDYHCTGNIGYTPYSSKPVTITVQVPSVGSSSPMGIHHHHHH
Description: as §1

[5] = target: T5, cyno FcγRIIIa(S) (cynomolgus monkey, UniProt Q8SPW2 21-206 at identity 1.00)); test: as above
T5 construct: also called cyFcyRIIIa(S); not shown: C-terminal His-tag
T5 chain: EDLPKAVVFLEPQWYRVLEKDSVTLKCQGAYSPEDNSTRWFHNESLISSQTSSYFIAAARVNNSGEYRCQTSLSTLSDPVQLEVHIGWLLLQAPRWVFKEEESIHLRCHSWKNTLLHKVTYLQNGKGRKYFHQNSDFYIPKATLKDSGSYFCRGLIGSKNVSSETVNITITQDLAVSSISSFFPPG
Description: as §1

[6] = target: T6, cyno FcγRIIa3 (cynomolgus monkey); test: as above
T6 construct: not shown: C-terminal His-tag
T6 chain: T4 chain with K127I, N130K, H133P, Q142R
Description: as §1

[7] = target: T7, cyno FcγRIIa1 (cynomolgus monkey); test: as above
T7 construct: also called cyFcyRIIa1; not shown: C-terminal His-tag
T7 chain: T4 chain with T95P, A121T, K127I, S128A, N130K, N135D, Q142R
Description: as §1

[8] = target: T8, cyno FcRn complexed with β2-microglobulin (cynomolgus monkey, UniProt Q8SPV9 24-290; Q8SPW0 21-119); test: SPR (Biacore T200), antibody captured on Protein L, cyno FcRn 0-240 nM as analyte, steady-state analysis, pH6.0, 25 C
T8 construct: also called cynomolgous monkey neonatal Fc receptor
Description: Analysis of interaction between each antibody and the FcRn prepared as mentioned above was carried out using BIACORE (registered trademark) T200 (GE Healthcare). Buffer solution containing 150 mM sodium chloride, 0.05 w/v % Tween-20, 50 mM phosphate buffer (pH6.0) was used as running buffer, and the measurement temperature was set to 25 degrees C. Series S sensor Chip CM4 (GE Healthcare) onto which Protein L (BioVision) had been immobilized by the amine coupling method was used. After capturing 400 resonance unit (RU) of antibodies of interest onto the chip via the Protein L, FcRn diluted with the running buffer was allowed to interact, then the KD values were calculated. COS0098pHv1-SG1 was evaluated with 0, 250, 500, 1000, 2000, 4000 nM cyno FcRn, and COS0098pHv1-SG1077R was evaluated with 0, 15, 30, 60, 120, 240 nM cyno FcRn. Then, the chip capturing each antibody was washed by 10 mM Glycine-HCl, pH1.5, regenerated and used repeatedly. The equilibrium dissociation constant (KD (M)) for cyno FcRn was calculated for each antibody based on the steady-state analysis. The Biacore T200 Evaluation Software (GE Healthcare) was used to calculate each parameter.

T3 sequence (Q8SPW2 other isoform, or with tags, fused parts or gaps): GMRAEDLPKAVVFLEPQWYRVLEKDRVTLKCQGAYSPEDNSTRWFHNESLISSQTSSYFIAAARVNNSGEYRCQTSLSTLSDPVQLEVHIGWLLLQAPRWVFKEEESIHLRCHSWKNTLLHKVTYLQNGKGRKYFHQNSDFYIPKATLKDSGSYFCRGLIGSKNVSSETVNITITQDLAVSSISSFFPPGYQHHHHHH
T8 sequence (Q8SPV9 24-290 limits assumed, chain 1 of 2): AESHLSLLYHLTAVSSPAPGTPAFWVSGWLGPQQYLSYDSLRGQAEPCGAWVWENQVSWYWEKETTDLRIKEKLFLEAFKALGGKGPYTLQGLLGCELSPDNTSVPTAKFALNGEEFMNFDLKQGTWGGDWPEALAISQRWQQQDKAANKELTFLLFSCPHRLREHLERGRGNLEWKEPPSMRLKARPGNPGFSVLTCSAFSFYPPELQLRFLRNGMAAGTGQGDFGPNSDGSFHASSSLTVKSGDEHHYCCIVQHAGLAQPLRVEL
T8 sequence (Q8SPW0 21-119 limits assumed, chain 2 of 2): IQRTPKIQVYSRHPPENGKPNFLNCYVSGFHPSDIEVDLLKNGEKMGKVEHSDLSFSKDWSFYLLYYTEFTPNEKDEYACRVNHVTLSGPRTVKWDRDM

B1: COS0098pHv1-SG1077R (antibody)
heavy: QVQLVQSGAEVKKPGSSVKVSCKASGHTFSKYTVSWIRQPPGKGLEWIGIINTGGSAYPATWAKGRVTITADESTSTAYMELSSLRSEDTAVYYCARGAGDTDYTNLWGQGTLVTVSSASTKGPSVFPLAPSSKSTSGGTAALGCLVKDYFPEPVTVSWNSGALTSGVHTFPAVLQSSGLYSLSSVVTVPSSSLGTQTYICNVNHKPSNTKVDKRVEPKSCDKTHTCPPCPAPELWNGPSVFLFPPKPKDTLMISRTPEVTCVVVDVSDEDPEVKFNWYVDGVEVHNAKTKPREELYNSTYRVVSVLTVLHRDWLNGKEYKCKVSNTALPKPIEKTISKAKGQRREPQVYTLPPSREEMTKNQVSLTCLVKGFYPSDIAVEWESNGQPENNYKTTPPVLDSDGSFFLYSKLTVDKSRWQQGNVFSCSVLHEALHAHTTRKELSLSP
light: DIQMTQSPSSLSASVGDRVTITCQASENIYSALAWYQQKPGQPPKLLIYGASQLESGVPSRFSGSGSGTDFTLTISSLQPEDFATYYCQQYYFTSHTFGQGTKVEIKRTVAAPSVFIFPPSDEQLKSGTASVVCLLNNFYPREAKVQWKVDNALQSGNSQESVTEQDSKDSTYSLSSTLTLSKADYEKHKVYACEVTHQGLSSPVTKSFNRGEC
notes: also called COS009pHv1-SG1077R; COS009BpHv1-SG1077R
Relative value of binding activity [1]: 0.06 fold, relative to COS0098pHv1-SG1 | Binding activity value (Binding amount per 1 RU antibody) [2]: 0.082 RU per 1 RU antibody | Relative value of binding activity [2]: 2.86 fold, relative to COS0098pHv1-SG1 | Binding activity value (Binding amount per 1 RU antibody) [3]: 0.006 RU per 1 RU antibody | Relative value of binding activity [3]: 0.05 fold, relative to COS0098pHv1-SG1 | Binding activity value (Binding amount per 1 RU antibody) [4]: 0.0425 RU per 1 RU antibody | Relative value of binding activity [4]: 2.51 fold, relative to COS0098pHv1-SG1 | Binding activity value (Binding amount per 1 RU antibody) [5]: 0.0084 RU per 1 RU antibody | Relative value of binding activity [5]: 0.07 fold, relative to COS0098pHv1-SG1 | Binding activity value (Binding amount per 1 RU antibody) [6]: 0.025 RU per 1 RU antibody | Relative value of binding activity [6]: 3.96 fold, relative to COS0098pHv1-SG1 | Binding activity value (Binding amount per 1 RU antibody) [7]: 0.0436 RU per 1 RU antibody | Relative value of binding activity [7]: 2.23 fold, relative to COS0098pHv1-SG1 | Kd [8]: 70 nM
